In general, stoichiometry N refers to a count of units in the complex or per binding partner.

Positions count from the first letter of the chain named.

The labels stand for the following.
B1: SUMO-Mms6 D49A (natural protein, Magnetospirillum magneticum AMB-1)
chain: GGTIWTGKGLGLGLGLGLGAWGPIILGVVGAGAVYAYMKSRDIESAQSAEEVELRDALA
notes: Mms6, Magnetospirillum magneticum AMB-1, mature form; numbers count on: the mature protein; Same tags and construct as m1; source: E. coli BL21 (DE3) Star, purified (nickel column, dialysis); not shown: His6, N-terminal, kept; SUMO (yeast), N-terminal, kept
B2: SUMO-Mms6 E53A (natural protein, Magnetospirillum magneticum AMB-1)
chain: B1 chain with A49D, E53A
notes: as for B1
B3: SUMO-Mms6 R55A (natural protein, Magnetospirillum magneticum AMB-1)
chain: B1 chain with A49D, R55A
notes: as for B1
B4: SUMO-Mms6 E50A (natural protein, Magnetospirillum magneticum AMB-1)
chain: B1 chain with A49D, E50A
notes: as for B1
B5: SUMO-Mms6 EE50AA (natural protein, Magnetospirillum magneticum AMB-1)
chain: B1 chain with A49D, E50A, E51A
notes: Mms6, Magnetospirillum magneticum AMB-1, mature form; numbers count on: the mature protein; Same tags and construct as m1; also called double mutant; source: E. coli BL21 (DE3) Star, purified (nickel column, dialysis); not shown: His6, N-terminal, kept; SUMO (yeast), N-terminal, kept
B6: SUMO-Mms6 D42A (natural protein, Magnetospirillum magneticum AMB-1)
chain: B1 chain with D42A, A49D
notes: Mms6, Magnetospirillum magneticum AMB-1, mature form; numbers count on: the mature protein; Same tags and construct as m1 (pET28SUMOmms6, site directed mutagenesis); source: E. coli BL21 (DE3) Star, purified (nickel column, dialysis); not shown: His6, N-terminal, kept; SUMO (yeast), N-terminal, kept
B7: SUMO-Mms6 E51A (natural protein, Magnetospirillum magneticum AMB-1)
chain: B1 chain with A49D, E51A
notes: as for B1
B8: SUMO-Mms6 E44A (natural protein, Magnetospirillum magneticum AMB-1)
chain: B1 chain with E44A, A49D
notes: as for B1
B9: SUMO-Mms6 (natural protein, Magnetospirillum magneticum AMB-1)
chain: B1 chain with A49D
notes: Mms6, Magnetospirillum magneticum AMB-1, mature form (59 residues), the C-terminal stretch of the printed SUMO-Mms6 construct; numbers count on: the mature protein (truncated form isolated by Arakaki et al.); No cleavage of the tags is described; also called wildtype SUMO-Mms6; Mms6 (His6-SUMO fusion); source: E. coli BL21 (DE3) Star, purified (nickel column, dialysis against EDTA and …)

The first data set deals with the molecule itself. In words: SDS-PAGE; purified proteins on Bio-Rad AnyKd gel, InstantBlue staining; apparent monomer and dimer bands.
As for B1, the binding result is reported as “binds”.

On to B2, for which the binding result is reported as “binds”. The same measure, in the same setting: for B3 the value was “binds”; for B4, “binds”; for B5, “binds”. For the protein B6, the binding result was “binds”. As to B7, the binding result is “binds”. Same read-out and setting: then B8, with “binds”.

The next data set deals with the molecule itself. The data set can be described thus: SEC; gel filtration of purified SUMO-Mms6 on Superdex S200 10/300 in 20 mM Tris pH 7.4; molecular weights extrapolated from Gel Filtration Marker Kit standards.
For the protein B9, the “stoichiometry N” value was 2.

(Values after PMC7041794, “Investigating the ferric ion binding site of magnetite biomineralisation protein Mms6” (PLoS ONE, 2020).)
